The nanobody polyreactivity screen of Harvey et al. (2022)

Test: yeast display, Sf9 membrane polyspecificity reagent, FACS + sequencing; frameworks hold sequencing errors
Procedure, shortened: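 Synthetic nanobody libraries on Saccharomyces cerevisiae BJ5465 were galactose-induced for 36–48 hours, stained 1 hour at 4 °C with 10% biotinylated, detergent-solubilized Sf9 membrane reagent and enriched on streptavidin microbeads. FACS then separated cells into low and high (top ~1%) gates by anti-HA (expression) and streptavidin (reagent binding) fluorescence. Genes were colony-PCR amplified, MiSeq 2 × 250 sequenced and CDR-length filtered. A clone's polyreactivity label is that of its gate of origin.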

Sequence	polyreactivity (PSR sort gate)
QVQLVESGGGLVQAGGSLRLSCAASGFTFSTYAMGWDRQAPGKERELVAAISRSGGSTYYADSVKGRFTISRDNAKNTVYLQMNSLKPEDTAVYYCAVRPFRSAGGSVTRGAYYYWGQGTQVTVSS	high polyreactivity
QVQLVESGGGLVQAGGSLRLSCAASGFTFSTYDMGWYRQAPRKERELVAAIDYIDGSTYYADSVKGRFTISRDNAKNTVDLQMNCLKPEDTAVYYCAAHYYYDEFGYWGQGTQVTVSS	low polyreactivity
QVQLVESGGGLVQAGGSLRLSCAASGFTFSVNAMGWYRQAPGKERELVAAISSRGGSTYYADSVKGRFTISRDNAKNTVYLQMNSLKPEDTAVYYCAKYPFYRSRHLGYWGQGTQVTVSS	high polyreactivity
QVQLVESGGGLVQAGGSLRLSCAASGFTFSWYVMGWYRQAPGKERELVATITNRGGSTYYADSVKGRFTISRDNAKNTVYLQMNSLKPEDTAVYYCAARNYGKYRTNDYWGQGTQVTVSS	high polyreactivity
QVQLVESGGGLVQAGGSLRLSCAASGFTFSYNAMGWYRQAPGKERELVAAISSGGRTYYADSVKGRFTISRDNAKNTVYLQINSLKPEDTAVYYCNAEPDQYTLRSITNDEDYWGQGTQVTVSS	low polyreactivity
QVQLVESGGGLVQAGGSLRLSCAASGFTFSYYAMGGYRQAPGKERELVAGIDYSGGSTYYADSVKGRFTISRDNAKNTVYLQMNSQKPEDTAVFYCNAVYARKYYYSHGYDYWGQGTQVTVSS	high polyreactivity
QVQLVESGGGLVQAGGSLRLSCAASGFTFSYYAMGWSRQAPGKERELVAAITTSGGRTYYADSVKGRFTISRDNAKNTFYLQMNSLKPEDTAVYYCAATYPRYYSGEFDYWGQGTQVTVSS	high polyreactivity
QVQLVESGGGLVQAGGSLRLSCAASGFTFSYYAMGWYRQAPGKERELVAAITSSAGSTYYADSVKGRFTISRDNAKNTVYLQMNSLKPEDTAVYYCNAVYSKLNGGYDYWGQGTQVTVSS	low polyreactivity
QVQLVESGGGLVQAGGSLRLSCAASGFTFSYYAMGWYRQAPGKERELVAGITTGGGTNYADSVKGRFTISRDNAKNTVYLQMNSLKPEDTAVFYCNADYWYKYDYWGQGTQVTVSS	low polyreactivity
QVQLVESGGGLVQAGGSLRLSCAASGFTFSYYAMGWYRQSPGKERELVASISRSGNTYYADSVKGRFTISRDNAKNTVYLQMKSLKPEDTAVYYCAAKRKSYYSYNFDYWGQGTQVTVSS	high polyreactivity
QVQLVESGGGLVQAGGSLRLSCAASGFTFSYYARGWYRQAPGKERELVAAISINGGRTYYADSVKGRFTISRDNAKNTVYLQMNSLKPEDTAVYYCNAVSYAYTVRMYYWGQVTQVTVSS	high polyreactivity
QVQLVESGGGLVQAGGSLRLSCAASGFTFSYYSMGRYRQAPGKERELVARISFSGTRTYYADSVKGRFTISRDNAKNTVYLQMNSLKPEDTAVYYCARRYRDYGRYGYWGQGTQVTVSS	high polyreactivity
QVQLVESGGGLVQAGGSLRLSCAASGFTFTANGMGWYIQAPGKERELLAAINWSGSRTYYADSVKGRFTISRDNAKNTVYLQMNSLKPEDTAVYYCNTATSKSSYRHYDYWGQGTQVTVSS	high polyreactivity
QVQLVESGGGLVQAGGSLRLSCAASGFTFTAYAMGWYRQAPGKERELVAAISNRGGRTYYADSVKGRFTFSRDNAKNTVYLQMNSLKPEDTAVYYCAAGYSYAQYSYPFLSFAFGYWGQGTQVTVSS	high polyreactivity
QVQLVESGGGLVQAGGSLRLSCAASGFTFTAYARGWYRQAPGKERELVAAINWSGSRTSYADSVKGRFTISRDNAKNTVYLQMNSLKPEDTAVYYCNPATSKSSYRHYDYWGQGTQVTVSS	high polyreactivity
QVQLVESGGGLVQAGGSLRLSCAASGFTFTDNAMGRYRQAPGKERELVAAISEGSGITYYADSVKGRFTISRDNAKNTVYLQMNSLKPEDTAVYYCAADWLSKYDYWGQGTQVTVSS	low polyreactivity
QVQLVESGGGLVQAGGSLRLSCAASGFTFTDYAMGWYRQAPGKERELVAAIYGIGGSTYYADSVKGRFTISRDNAKITVYLKMKSLKPEDTAVYYWNAYRSFTGYDYDYWGQGTQVTVSS	high polyreactivity
QVQLVESGGGLVQAGGSLRLSCAASGFTFTHYAMGWYREAPGKERELVAAISTSVGSKYYADSVKGRFTISRDNAKNTVYVQMNSLKPEDTAVYYFAARRDGWVQWGNYYWGQVTQVTVSS	low polyreactivity
QVQLVESGGGLVQAGGSLRLSCAASGFTFTINAMGWYRQAPGKERELVAAINWRGGSTYYADSVKGRFTISRDNAKNTVYLQMNSLKPEDTAVYYCNAVASIYSYAYPPYWGREHLNYWGQGTQVTVSS	low polyreactivity
QVQLVESGGGLVQAGGSLRLSCAASGFTFTIYAMGWYRPAPGKEMELVAAITGRGGSTYYADSVKGRFTISRDNAKNTVYLRMNSLKPEDTAVYYCADSQRSGHPSYDYWGQGTQVTVSS	high polyreactivity
QVQLVESGGGLVQAGGSLRLSCAASGFTFTKYAMGWYRQAPGKERELVAAITSSGGGTYYADSVKGRFTISRDYAKNTVYLQMNRLKPVDTAVYYCARDSRTGYYYWGQGTQVTVSS	high polyreactivity
QVQLVESGGGLVQAGGSLRLSCAASGFTFTLNAMGWYRQAPGKASEFVAAISTGGSTYYADSVKGRFTISRHNAKNTVYLQMNSRKPEDTAVYYCAAYRYSYHGSYQETYYYWGQGTQVTVSS	high polyreactivity

Sequence	polyreactivity (PSR sort gate)
QVQLVESGGGLVQAGGSLRLSCAASGFTFTLNAMGWYRQAPGKERELVAGISSGGSTNYADSVKGRFTISRDNAKNTVYLQMNSLKPEDTAVYYCAADRGYVWRYDYWGQGTQVTVSS	low polyreactivity
QVQLVESGGGLVQAGGSLRLSCAASGFTFTNYAMGWYRQAPGKEREFVARITWSGGSTYYADSVKGRFTISRDNAKNTVYLQMNSLKPEDTAVYYCAARGWLVRSFIYDYWGQGTQVTVSS	high polyreactivity
QVQLVESGGGLVQAGGSLRLSCAASGFTFTPNAMGWYRQAPGKERELVAAITSDGTTYYADSVKGRFTISRDNAKNTVYLQMNSLNPEDTAVYYCAADGGISAGANSGYDYWGQGTQVTVSS	high polyreactivity
QVQLVESGGGLVQAGGSLRLSCAASGFTFTRNAMGWYRQAPGKEREFVAAITRSGGSTYYADSVKGRFTISRDNAKNTVYLQMNSLKPEDTAVYYCNKRSPSTIRFDYWGQGTQVTVSS	high polyreactivity
QVQLVESGGGLVQAGGSLRLSCAASGFTFTRNAMGWYRQAPGKERELVAAISGSGGSTYYADSVKGRFTISRDNAKNTVYLQMNSLKPEDTAVYYCAAPLPWAYAYDYWGQGTQVTVSS	high polyreactivity
QVQLVESGGGLVQAGGSLRLSCAASGFTFTRYAMGWYRQAPGKERELVAAMTTNSGSRTYYADSVKGRFTISRDNAKNTVYGQMNSLKPEDTAVYYCAADGPVVRGYYWGQGTQVTVSS	high polyreactivity
QVQLVESGGGLVQAGGSLRLSCAASGFTFTRYTMGWYRQAPGKERELVAHITSGDSTNYADSVKGRFTISRDNAKNTVYLQKNSLKPEDTAVYYCNAEVKGFFYDYDYWGQGTQVTVSS	low polyreactivity
QVQLVESGGGLVQAGGSLRLSCAASGFTFTRYTMGWYSQEPGKERELVARITRSGGSTYYADSVKGRFTISRDNAKNTVYLQMNSLKPEDTAVYYCAADTWSYTTRYYYWGQGTQVTVSS	high polyreactivity
QVQLVESGGGLVQAGGSLRLSCAASGFTFTVYAMGWYRQAPGKERELVAAISGIGGSTYYADSVKGRFTISRDNAKNTVYLQMNSLKPEDTAVYYCNAVSGDSGDYWGQGTQVTVSS	low polyreactivity
QVQLVESGGGLVQAGGSLRLSCAASGFTFTWYAMGWYRQAPGKQRELVASISRSGGSTYYAESVKGRFTISRDNAKNTVYLQMNSRKPEDTAVYYCAAVSRTRSYDYWGQGTQVTVSS	high polyreactivity
QVQLVESGGGLVQAGGSLRLSCAASGFTFTYNTMGWYRQAPGKERELVAAISALGTSTYYADSVKGRFTISRDNAKNTVYLQMNSLKPEDTEVYYCAAAYRIGSGYWGQGTQVTVSS	high polyreactivity
QVQLVESGGGLVQAGGSLRLSCAASGFTFTYNTMGWYRQAPGKEREMVAAISSTGGSTYYADSVKGRFTISRDNAKNTVYLQMNSLKPEDTAVYYCNACLPFSGRKRYGYWGQGTQVTVSS	high polyreactivity
QVQLVESGGGLVQAGGSLRLSCAASGFTFTYYAMGWNRQEPGKERELVAAISGNGGSTYYADSVKGRFTISRDNAKNTVYLQMNRLKPEDTAVYYCNALPTSVGRWYRGDYWGQGTLVTVSS	high polyreactivity
QVQLVESGGGLVQAGGSLRLSCAASGFTFTYYAMGWYRQAPGKERELVAAISASGDSTYYADSVKGRFTISRDNAKNTVYLQMNILKPEDTAVYYCAALYWYSRSSWDYDYWGQGTQVTVSS	high polyreactivity
QVQLVESGGGLVQAGGSLRLSCAASGFTFTYYTMGWYRQATGKERELVAGISRSGGSTYYADSVKGRFTISRDYAKNTVYLQMNSLKPVDTAVYYCAAGSIQYRPTYTGDYWGQGTQVTVSS	high polyreactivity
QVQLVESGGGLVQAGGSLRLSCAASGFTFVDYAMGWYRQAPGKERELVAAISSSGDSTYYADSVKGRFTISRYNAKNTVYLQMNSLKPEDNAVYYCAAEYDREEYSGYDYLGQGTQVTVSS	low polyreactivity
QVQLVESGGGLVQAGGSLRLSCAASGFTFVFYAMGWYRQAPGKERELVAAISSGGGGTYYADSVKGRFTISRDNAKNTVYLQMNSLKPEDTAVYYCNTRYHKVYYGNDYWGQGTQVTVSS	high polyreactivity
QVQLVESGGGLVQAGGSLRLSCAASGFTFVGNAMGWYRQAPGKERELVAAIRWSSGSTYYADSVKGRFTISRDNAKNTVYLQMNSLKPEDTAVYYCNAVYSVFYEYDYCGQGTQVTVSS	low polyreactivity
QVQLVESGGGLVQAGGSLRLSCAASGFTFVGYAMGWYRQAPGKERELVASINYSGGSTYYADSVKGRFTISRDNAKNTVYVQMNSLNPEDTAVYYCAAGGYPWYLRRGGFACYDYWGQGTQVTVSS	low polyreactivity
QVQLVESGGGLVQAGGSLRLSCAASGFTFVGYPLGWYRQATGKERELVAAISVSGGRTYYADSVKGRFTISRDNAMNTVYLQMKSLNPEDTAVYYCNAASPSYADFDYWGQGTQVTVSS	high polyreactivity
QVQLVESGGGLVQAGGSLRLSCAASGFTFVINDLGWYRQAPGKERELVADITSGGDTYYADSVKGRFTISRDNAKNTVYLQMNSLKPEDTAFYYCAADIYPDWIYLLYGYWGQGTQVTVSS	low polyreactivity
